Here are results for 10 substances from PMC7778609.

The target in experiment [1] is human FcγRIIIa^F158 extracellular domain with AviTag and 6×his tag (human) (UniProt P08637). Briefly: SPR; Biacore T200, HBS-EP+ buffer, 20 °C; 500 nM his-tagged FcγR extracellular domains captured by anti-his antibody on a CM5 chip; twofold serially diluted antibody variants injected (120 s association, 130 s dissociation, 30 μL/min); 1:1 binding kinetics model or steady state affinity model.

Experiment [2] has as its target human FcγRIIb extracellular domain with AviTag and 6×his tag (human) (UniProt P31994). The experiment is described as above.
For experiment [3], the target named is human FcγRIIa^H131 extracellular domain with AviTag and 6×his tag (human) (UniProt P12318). Described as above.
human FcγRIIa^H131 extracellular domain with AviTag and 6×his tag (human), sequence (P12318 34-217): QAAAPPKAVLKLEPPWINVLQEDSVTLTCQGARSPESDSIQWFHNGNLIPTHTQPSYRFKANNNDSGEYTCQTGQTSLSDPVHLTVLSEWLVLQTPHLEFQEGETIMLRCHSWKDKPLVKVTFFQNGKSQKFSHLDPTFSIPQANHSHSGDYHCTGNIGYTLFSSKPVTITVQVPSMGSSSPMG
The target of experiment [4] is human FcγRIIa^R131 extracellular domain with AviTag and 6×his tag (human). Described as above.
Experiment [5] deals with human FcγRIIIa^V158 extracellular domain with AviTag and 6×his tag (human). Described as above.
Experiment [6] concerns the target human FcRn, his-tagged (human) (UniProt P55899). Briefly: SPR; as a1, his-tagged FcRn captured by anti-his antibody, antibody variants injected; pH 6.
Experiment [7] deals with human FcγRI extracellular domain, his-tagged (human) (UniProt P12314). Put plainly: SPR; Biacore T200, HBS-EP+ buffer, 20 °C; 500 nM his-tagged FcγR extracellular domains captured by anti-his antibody on a CM5 chip; twofold serially diluted antibody variants injected (120 s association, 130 s dissociation, 30 μL/min); 1:1 binding kinetics model or steady state affinity model.
human FcγRI extracellular domain, his-tagged (human), sequence (P12314 16-292): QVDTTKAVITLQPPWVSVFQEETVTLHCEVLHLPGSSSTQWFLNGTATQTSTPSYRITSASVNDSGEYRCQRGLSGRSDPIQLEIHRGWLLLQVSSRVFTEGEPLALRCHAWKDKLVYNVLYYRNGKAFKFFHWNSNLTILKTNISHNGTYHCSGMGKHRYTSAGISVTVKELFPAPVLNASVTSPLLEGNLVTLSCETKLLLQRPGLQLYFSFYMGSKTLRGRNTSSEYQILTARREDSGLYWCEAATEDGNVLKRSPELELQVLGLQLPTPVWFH

human FcγRIIb extracellular domain with AviTag and 6×his tag (human), sequence (P31994 43-217): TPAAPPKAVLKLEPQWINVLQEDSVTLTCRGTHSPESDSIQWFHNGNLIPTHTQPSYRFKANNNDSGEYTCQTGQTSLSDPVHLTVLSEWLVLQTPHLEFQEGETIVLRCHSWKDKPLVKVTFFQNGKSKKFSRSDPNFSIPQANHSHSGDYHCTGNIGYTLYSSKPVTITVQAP
human FcRn, his-tagged (human), sequence (P55899 24-297): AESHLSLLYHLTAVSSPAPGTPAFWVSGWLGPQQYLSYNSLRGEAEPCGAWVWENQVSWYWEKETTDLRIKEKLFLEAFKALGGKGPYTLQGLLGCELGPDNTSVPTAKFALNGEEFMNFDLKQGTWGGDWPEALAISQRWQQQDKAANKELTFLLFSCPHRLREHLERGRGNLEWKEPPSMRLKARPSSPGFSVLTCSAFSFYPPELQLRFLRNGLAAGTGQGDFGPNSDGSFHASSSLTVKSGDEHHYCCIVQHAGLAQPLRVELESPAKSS
human FcγRIIIa^F158 extracellular domain with AviTag and 6×his tag (human), sequence (P08637 17-208): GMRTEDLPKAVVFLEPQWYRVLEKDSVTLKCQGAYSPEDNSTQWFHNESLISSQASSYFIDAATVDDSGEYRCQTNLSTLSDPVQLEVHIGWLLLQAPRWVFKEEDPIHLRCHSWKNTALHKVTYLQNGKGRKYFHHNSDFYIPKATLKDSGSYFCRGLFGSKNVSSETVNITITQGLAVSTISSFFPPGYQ

Consider “defucosylated trastuzumab with Fc variant H268E/K326M/I332E (antibody)”, for which the dissociation constant (Kd) in experiment [1] was 3.55 nM; in experiment [2], 1030 nM; in experiment [3] it was 1040 nM; in experiment [4], 420 nM; in experiment [5], 1.71 nM.
The matching figures for “defucosylated trastuzumab with Fc variant H268E/K326S/I332E (antibody)”: 2.62 nM, 1460 nM, 669 nM, 369 nM and 1.36 nM.
Consider “defucosylated trastuzumab with wild-type Fc (antibody)”, for which the Kd in experiment [1] was 46.5 nM; in experiment [2], 1780 nM; in experiment [3], 2090 nM; in experiment [4] it was 1460 nM; in experiment [5] it was 12.3 nM.
In the same order, the values of “fucosylated trastuzumab with wild-type Fc (antibody)” are 174 nM, 1240 nM, 1000 nM, 1500 nM and 38.5 nM.
Turning to “rituximab with Fc variant H268E/A330T/I332E (antibody)”, the Kd was determined as 21.5 nM in experiment [6]; 156 nM in experiment [1]; 906 nM in experiment [2]; 627 nM in experiment [3]; 575 nM in experiment [4]; 5.64 nM in experiment [7]. The Kd in experiment [5] is 61.1 nM.
With “rituximab with Fc variant H268E/A330Y/I332D (antibody)”, the Kd is 21.9 nM in experiment [6]; 94 nM in experiment [1]; 1470 nM in experiment [2]; 526 nM in experiment [3]; 680 nM in experiment [4]; 5.04 nM in experiment [7]. Further, the Kd in experiment [5] amounted to 60.6 nM.
For the substance “rituximab with Fc variant H268E/K326I/I332E (antibody)”, the Kd is 25.7 nM in experiment [6]; 311 nM in experiment [1]; 1690 nM in experiment [2]; 1950 nM in experiment [3]; 1210 nM in experiment [4]; 6.11 nM in experiment [7]. Besides, in experiment [5], the Kd is 143 nM.
With “rituximab with Fc variant H268E/K326M/I332E (antibody)”, the Kd in experiment [6] worked out at 26 nM; in experiment [2], 1050 nM; in experiment [3], 882 nM; in experiment [4] it was 738 nM; in experiment [7], 5.15 nM; in experiment [5] it was 69.1 nM.
Consider “rituximab with Fc variant H268E/K326S/I332E (antibody)”, for which the Kd came out at 25 nM in experiment [6]; 151 nM in experiment [1]; 1130 nM in experiment [2]; 814 nM in experiment [3]; 803 nM in experiment [4]; 5.18 nM in experiment [7]. The same substance came in with a Kd in experiment [5] of 74.7 nM.
As for rituximab with wild-type Fc (antibody), the Kd in experiment [6] was 21 nM; in experiment [1], 944 nM; in experiment [2] it was 2410 nM; in experiment [3], 1090 nM; in experiment [4], 1250 nM; in experiment [7] it was 8.67 nM. This substance yielded a Kd in experiment [5] of 403 nM.
